The results in this text go back to patent publication US20170137467A1 (CHROMOTEK, published 2017).

Positions count from the first letter of the chain named. Square brackets hold non-standard residues; d marks the D form. GABA = NCCCC(=O)O

What all share (experiment): positional peptide library pulldown on immobilised Nb, LC-MS of supernatant; signal ratio to control GFP-Nb (1 = not captured, near 0 = captured)
The target in one experiment is T1, BC2T S8G.
T1 construct: positional scanning library member
T1 peptide: Ac-PDRKAAVGHWQQ-NH2
The text has this: (§1) In total, 12 different BC2T libraries displaying all 20 proteinogenic amino acids in one single position of the peptide were used in immunoprecipitation experiments. […] The direct comparison with the GFP-Nb made it possible to determine the quantitative degree of peptide capture without the need of labeled standards. […] The more peptide was captured the more the value approximates 0. It was not possible to discriminate between isoleucine (I) and leucine (L) peptide versions since these peptides are isobaric.
(§2) To investigate the binding specificity of the BC2T and derived mutants peptide libraries for each amino acid position of the sequence […] (SEQ ID NO:4) were synthesized with acetyl and amide groups located at the N-termini or C-termini respectively (Intavis). […] Incubations were performed in 300 μl PBS/0.01% CHAPS for 1 h on a HulaMixer (Life Technologies). Subsequent to a centrifugation step 10 μl supernatant were analyzed in a LC-MS procedure. Peptides were separated using an UltiMate3000 RSLCnano System (Thermo Scientific), composed of a C18 PepMap100μ-Precolumn (300 μm×5 mm; particle size: 5 μm; pore size: 100 Å—Thermo Scientific) and a C18 analytical column (Acclaim Rapid Separation LC (RSLC) Column: 150 mm×5 mm; particle size: 2.2 μm; pore size: 100 Å—Thermo Scientific). A step gradient was applied starting at 8% and ending after 20 min at 30% eluent B (80% acetonitrile, 20% H₂O, 0.1% formic acid).

For another experiment, the target named is T2, BC2T W10G.
T2 construct: positional scanning library member
T2 peptide: Ac-PDRKAAVSHGQQ-NH2
Excerpt: as §1, §2

For a further experiment, the target named is T3, BC2T W10V.
T3 construct: positional scanning library member
T3 peptide: Ac-PDRKAAVSHVQQ-NH2
Excerpt: as §1, §2

The target in another experiment is T4, BC2T Q12V.
T4 construct: positional scanning library member
T4 peptide: Ac-PDRKAAVSHWQV-NH2
Excerpt: as §1, §2

The target in the next experiment is T5, BC2T Q12(I/L1) (N-terminal acetyl; C-terminal amide).
T5 construct: positional scanning library member; I or L not resolved
Excerpt: as §1, §2

In another experiment the target is T6, BC2T S8M.
T6 construct: positional scanning library member
T6 peptide: Ac-PDRKAAVMHWQQ-NH2
Excerpt: as §1, §2

In a further experiment the target is T7, BC2T W10M.
T7 construct: positional scanning library member
T7 peptide: Ac-PDRKAAVSHMQQ-NH2
Excerpt: as §1, §2

The target of the next experiment is T8, BC2T Q12M.
T8 construct: positional scanning library member
T8 peptide: Ac-PDRKAAVSHWQM-NH2
Excerpt: as §1, §2

For a further experiment, the target named is T9, BC2T H9P.
T9 construct: positional scanning library member
T9 peptide: Ac-PDRKAAVSPWQQ-NH2
Excerpt: as §1, §2

A further experiment has as its target T10, BC2T W10P.
T10 construct: positional scanning library member
T10 peptide: Ac-PDRKAAVSHPQQ-NH2
Excerpt: as §1, §2

A further experiment concerns the target T11, BC2T Q12F.
T11 construct: positional scanning library member
T11 peptide: Ac-PDRKAAVSHWQF-NH2
Excerpt: as §1, §2

Another experiment has as its target T12, BC2T W10T.
T12 construct: positional scanning library member
T12 peptide: Ac-PDRKAAVSHTQQ-NH2
Excerpt: as §1, §2

Another experiment has as its target T13, BC2T H9N.
T13 construct: positional scanning library member
T13 peptide: Ac-PDRKAAVSNWQQ-NH2
Excerpt: as §1, §2

Another experiment addresses T14, BC2T W10N.
T14 construct: positional scanning library member
T14 peptide: Ac-PDRKAAVSHNQQ-NH2
Excerpt: as §1, §2

A further experiment has as its target T15, BC2T S8Q.
T15 construct: positional scanning library member
T15 peptide: Ac-PDRKAAVQHWQQ-NH2
Excerpt: as §1, §2

A further experiment has as its target T16, BC2T H9Q.
T16 construct: positional scanning library member
T16 peptide: Ac-PDRKAAVSQWQQ-NH2
Excerpt: as §1, §2

In a further experiment the target is T17, BC2T S8C(Abu) (also: Abu described as gamma-amino butyric acid).
T17 construct: positional scanning library member
T17 peptide: Ac-PDRKAAV[GABA]HWQQ-NH2
Excerpt: as §1, §2

In a further experiment the target is T18, BC2T Q11C(Abu) (SMILES …).
T18 construct: positional scanning library member
T18 peptide: Ac-PDRKAAVSHW[GABA]Q-NH2
Excerpt: as §1, §2

For another experiment, the target named is T19, BC2T W10K.
T19 construct: positional scanning library member
T19 peptide: Ac-PDRKAAVSHKQQ-NH2
Excerpt: as §1, §2

A further experiment concerns the target T20, BC2T Q12H.
T20 construct: positional scanning library member
T20 peptide: Ac-PDRKAAVSHWQH-NH2
Excerpt: as §1, §2

Another experiment deals with T21, BC2T S8A.
T21 construct: positional scanning library member
T21 peptide: Ac-PDRKAAVAHWQQ-NH2
Excerpt: as §1, §2

B1: BC2 nanobody (VHH)
VHH: QVQLVESGGGLVQPGGSLTLSCTASGFTLDHYDIGWFRQAPGKEREGVSCINNSDDDTYYADSVKGRFTIFMDNAKDTVYLQMNSLKPEDTAIYYCAEARGCKRGRYEYDFWGQGTQVTVSS
notes: immobilised on beads in this assay; also called BC2-Nb; BC2 nanotrap (immobilised)
For B1, the ratio with BC2T S8G was 0.5; in the experiment with BC2T W10G, 1.2; with BC2T W10V, 1; with BC2T Q12V, 0.1; with BC2T Q12(I/L1), 0.1; with BC2T S8M it was 0.6. Also, the ratio with BC2T W10M came to 1; with BC2T Q12M, 0.1; with BC2T H9P, 0.8; with BC2T W10P, 1.1; with BC2T Q12F, 0.2; with BC2T W10T, 1. The ratio turned out to be 0.1 in the experiment with BC2T H9N; 1 with BC2T W10N; 0.7 with BC2T S8Q; 0.2 with BC2T H9Q; 0 with BC2T S8C(Abu); 0.1 with BC2T Q11C(Abu). The ratio with BC2T W10K came out at 1; with BC2T Q12H, 0.1; in the experiment with BC2T S8A it was 0.

B2: BC2-NbR106S (VHH)
VHH: B1 VHH with R106S
notes: headlock mutant of BC2-Nb; immobilised on beads in this assay
Take B2: the ratio amounted to 0.9 with BC2T S8G; 1.1 with BC2T W10G; 1 with BC2T W10V; 0.2 with BC2T Q12V; 0.2 with BC2T Q12(I/L1); 1 in the experiment with BC2T S8M. The ratio came to 1.1 in the experiment with BC2T W10M; 0.3 with BC2T Q12M; 1 with BC2T H9P; 1.1 with BC2T W10P; 0.4 in the experiment with BC2T Q12F; 1 with BC2T W10T. Besides, the ratio with BC2T H9N stood at 0.3; with BC2T W10N, 1.1; with BC2T S8Q, 0.9; with BC2T H9Q, 0.4; with BC2T S8C(Abu), 0.1; in the experiment with BC2T Q11C(Abu), 0.3. Further, the figures for the ratio in the experiment with BC2T W10K, with BC2T Q12H and in the experiment with BC2T S8A were 1.1, 0.3 and 0.1, respectively.
